# Measured values: patent US20170029841A1, “METHODS AND COMPOSITIONS FOR SELECTIVE REGULATION OF PROTEIN EXPRESSION” (priority 2015, published 2017)
# Where two headings read alike, the source gives them in different places.
# B1: SEQ ID NO: 3: mts-siRNA target element, nucleotide positions 239 to 433 of cDNA SEQ ID NO: 18 (nucleic acid)
# DNA: TCTAGCCACACGGTCACGTTTGGACGACCAATAATAGGCTTGCAACCCTTCAAATTGTGTCCATCAGCTTCCCAACGTGCATATCGCCATCCTCTGCTTCGTGTCCCATGTCACCACCCCCACTCTTCCTCTTTACATGCAATGCAAATAAAGCAGATCCAACGTGGATGAGGGTGAATCGGATGTTGAGGTGGG
# modifications: Zea mays
# B2: SEQ ID NO: 5: mts-siRNA target element, nucleotide positions 239 to 433 of cDNA SEQ ID NO: 19 (nucleic acid)
# DNA: TGGCTGCTTCTGTTGGCGTGAAAGCTCGAGTGCTCCTAAATGGTCGTCGTATTAGCTGATACGACATCTACCCGATGCAATAGATAATATTGTTTACACGCGTGAGTC
# modifications: chemistry not fully specified; the letters are possibly those of the target site
# B3: SEQ ID NO: 7: mts-siRNA target element, nucleotide positions 1357 to 1562 of cDNA SEQ ID NO: 20 (nucleic acid)
# DNA: GGAACCGGTGACCAGCTGCACGACGATGAATCCTACAAGACGACCATGTAATACACAGTGTCGTCCTCTTCGTTCTACTACTCAACAGAGCAGTCGCCGACCAATAACGAATGGAGTATTATCTCTGTCCTTCACCTTACACCATATTCACACCATAGAACTGCAAATGTCCGAGGTACCAACTAACATCGGTACCTTTGGCATGA
# modifications: Zea mays
# B4: SEQ ID NO: 10: recombinant mts-siRNA target element sequence (nucleic acid)
# DNA: AGACGACGACCGTGCATGGTGATGAATCACAGACGACGAACACGCATGTCGCATCGCCGTCCTCTCACACCATAGAACTGCAAATGTCCG
# modifications: expressed or natural sequence; target site or template, no part of the molecule
# B5: SEQ ID NO: 4: mts-siRNA target element, nucleotide positions 477 to 697 of cDNA SEQ ID NO: 18 (nucleic acid)
# DNA: ACGAGGGAATGTCATTGGTCGATGAGTTGGAGGCGTCAAATGCAGATAAAGCTACAACTTCCATGTGGAGGATGACTGCGACGTTGTGGCAGACTCATCCACTACAGTGAGAGTCTAGGAAAGCATGAAGCCGATTGTGGACATCGATGTCGGTGTCAAGGACTTATAGATGTCATGTTGGGAGAGCAACCATGGCACGATAGTTAAGGCGCAAGGGTATC
# modifications: Zea mays
# B6: SEQ ID NO: 12: recombinant mts-siRNA target element sequence (nucleic acid)
# DNA: AGACGACGACCGTGCATGGTGATGAATCACAGACGACGAACACGCATGTCGCATCGCCGTCCTCTCACACCATAGAACTGCAAATGTCCGCTCTTCACCGTTGTAGTCGTTGATGGTATTGGTGGTGACGACATCCTTGGTGTGCATGCACTGGTGAGTCACTGTTGTAC
# B7: SEQ ID NO: 11: recombinant mts-siRNA target element sequence (nucleic acid)
# DNA: AGACGACGACCGTGCATGGTGATGAATCACAGACGACGAACACGCATGTCGCATCGCCGTCCTCTCACACCATAGAACTGCAAATGTCCGACAACAAGCACCTTCTTGCCTTGCAGTATTGGTGGTGACGACATCCTTGGTGTGCATGCACTGGTGAGTCACTGT
# B8: SEQ ID NO: 6: mts-siRNA target element, nucleotide positions 370 to 477 of cDNA SEQ ID NO: 19 (nucleic acid)
# DNA: TCGCCGAGAAGGGAGTAGTAGTATTACCTGATATCTATGCTAATTCAGGTGGTGTGGTCGTTAGCTACTTTAATTGAGTGGGTTCAGAACATTCAAGGTTTCATGTGG
# modifications: chemistry not fully specified; the letters are possibly those of the target site
# B9: SEQ ID NO: 1: mts-siRNA target element, 95% identity to nucleotide positions 1429 to 1628 of cDNA SEQ ID NO: 17 (nucleic acid)
# DNA: AGACGACGACCGTGCATGGTGATGAATCACAGACGACGAACACGCATGTCGCATCGCCGTCCTCTTTGTATCACACAGCATCACCTTCTTCGCTCTACTACTCCCCCGAGCAATCACCGACCAATAACACCAACCATCAACCTCCCCCGTCGCCGCCGCCTTCACCGTCCTCCCCTCACACCATAGAACTGCAAATGTCCG
# Columns and labels:
# [1] = tested on: transgenic maize R0 plants (double copy events); test: R0 plant greenhouse glyphosate spray: vegetative tolerance and induced male sterility; format: in vivo; conditions: for % Vegetative Tolerant / % Vegetative Tolerance: glyphosate 0.75 lb ae/acre at V5 then V8; for % Vegetative Tolerant: <=10% injury 7 days after V5 spray
# Method: Transformation vectors containing the recombinant DNA constructs were used with an Agrobacterium-based transformation method and maize immature embryos and techniques known in the art. Leaf samples of R0 plants were collected and molecular analysis was conducted to select transgenic plants containing a single copy (one insertion) or a double copy (two independent insertions) of the recombinant DNA construct and no presence of vector backbone. Single copy events were not sprayed with glyphosate and were selfed and advanced for R1 seed collection, while double copy events were used for R0 glyphosate spray to assess vegetative tolerance and induced male sterility. Transgenic plants that were not sprayed with glyphosate had normal anthesis, normal pollen shedding, and normal pollen development as determined by Alexandar staining and microscopic observation.
# Double copy R0 events were used in testing to approximate a single copy homozygous event. Plants were sprayed with glyphosate at two different growth stages to determine if the presence of the mts-siRNA target element in the recombinant DNA construct provided vegetative glyphosate tolerance and glyphosate-induced tassel sterility. The plants were sprayed in a greenhouse with 1× glyphosate (0.75 lb ae/acre) applied at the V5 stage followed by 1× glyphosate (0.75 lb ae/acre) applied at the V8 stage. Seven days after the V5 stage glyphosate application, plants were scored for vegetative injury with scores of ≦10% injury considered as showing vegetative glyphosate tolerance (% Vegetative Tolerant). Male sterility was measured in two ways. […] Anthers were then collected and dissected to microscopically observe pollen development. Anthers for each event were tested for no viable pollen grains produced as detected by Alexandar staining under microscopic observation and scored as not producing any viable pollen (% No Pollen). In plants not sprayed with glyphosate, tassel development, anther extrusion, and pollen development were normal.
# The mts-siRNA target elements were tested in multiple transformation vector configurations. Each transformation vector was used to produce multiple R0 plants with each R0 plant representing a unique transgenic event made using the same transformation vector. Data for three different transformation vector configurations are provided as Tables 11 and 12.
# [2] = tested on: transgenic maize plants; conditions: for AES90+8 (LSD = 10): average anther extrusion at S90+8, same glyphosate regimen; for CIPVT (LSD = 8.1): glyphosate 1.5 lbs ae/acre at V2, 0.75 at V8, 0.75 at V10, range over events; for Seed Yield bu/acre (LSD = 24.7): end of season; for Avg. plant height (inches) (LSD = 6.9): in vivo
# [3] = vector configuration A, no anther extrusion up to S90+12 after V8 glyphosate
# [4] = vector configuration A, no viable pollen by Alexandar staining
Molecule,% Vegetative Tolerant ([1]; vector configuration A) [%],"% Completely Male-sterile [1, 3] [%]","% No Pollen [1, 4] [%]",CIPVT (LSD = 8.1) [2],Seed Yield bu/acre (LSD = 24.7) [2],% Completely Male-sterile ([1]; vector configuration B) [%],% No Pollen ([1]; vector configuration B) [%],% Vegetative Tolerance ([1]; vector configuration B) [%],% Completely Male-sterile ([1]; vector configuration C) [%],% No Pollen ([1]; vector configuration C) [%],% Vegetative Tolerance ([1]; vector configuration C) [%],other results
B1,90,10,0,–,–,–,–,–,–,–,–,–
B2,–,–,0,No significant difference,–,–,–,–,–,–,–,"% Vegetative Tolerant ([1]; vector configuration A, listed as 5): 90%; % Completely Male-sterile ([1]; vector configuration A, no anther extrusion up to S90+12 after V8 glyphosate, listed as 5): 50%; AES90+8 (LSD = 10) ([2]; listed as 5): 10%-20%; CIPVT (LSD = 8.1) ([2]; listed as 5): 5%"
B3,–,–,44,No significant difference,no significant decrease,–,–,–,–,–,–,"% Vegetative Tolerant ([1]; vector configuration A, listed as 7): 88%; % Completely Male-sterile ([1]; vector configuration A, no anther extrusion up to S90+12 after V8 glyphosate, listed as 7): 100%; AES90+8 (LSD = 10) [2]: 0-1.5%; AES90+8 (LSD = 10) ([2]; listed as 7): 0-1.5%; Seed Yield bu/acre (LSD = 24.7) ([2]; listed as 7): 100-110 bu/acre; CIPVT (LSD = 8.1) ([2]; listed as 7): 3.75-5%; Avg. plant height (inches) (LSD = 6.9) [2]: No significant difference; Avg. plant height (inches) (LSD = 6.9) ([2]; listed as 7): 79.8 inches"
B4,–,–,–,–,–,55,22,90,100,0,83,–
B5,86,7,0,No significant difference,70-80 bu/acre,–,–,–,–,–,–,AES90+8 (LSD = 10) ([2]; listed as 4): 16.25-18.75%; CIPVT (LSD = 8.1) ([2]; listed as 4): 1.25-3.75%
B6,–,–,–,–,–,50,20,100,23,0,87,–
B7,–,–,–,–,–,50,0,100,80,0,55,–
B8,90,82,0,No significant difference,–,–,–,–,–,–,–,AES90+8 (LSD = 10) ([2]; listed as 6): 25%; CIPVT (LSD = 8.1) ([2]; listed as 6): 3.75%
B9,–,–,–,No significant difference,no significant decrease,100,100,67,100,60,38,AES90+8 (LSD = 10) [2]: 0-2.75%; AES90+8 (LSD = 10) ([2]; listed as 1): 0-2.75%; Seed Yield bu/acre (LSD = 24.7) ([2]; listed as 1): 97-99 bu/acre; CIPVT (LSD = 8.1) ([2]; listed as 1): 2.5-6.25%; Avg. plant height (inches) (LSD = 6.9) [2]: No significant difference; Avg. plant height (inches) (LSD = 6.9) ([2]; listed as 1): 84.75 inches
